# In patent US7407934:
# Target: amylin receptor (rat basal forebrain membranes containing the nucleus accumbens and surrounding regions) (rat)
# Assay: competition with 125I-Bolton-Hunter rat amylin on rat basal forebrain membranes, filtration
# Sequence of 29Pro-h-Amylin (peptide) (peptide): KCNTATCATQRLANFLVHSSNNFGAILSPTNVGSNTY
# Sequence of 28Pro-h-Amylin (peptide) (peptide): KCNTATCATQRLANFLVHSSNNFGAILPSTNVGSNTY
row,Substance,IC50
1,1Ser-h-Amylin (peptide),33 pM
2,28Pro-h-Amylin (peptide),15 pM
3,29Pro-h-Amylin (peptide),64 pM

# The remaining substances from weak to strong by IC50, led by results:
row,IC50,Substance
1,148 pM,1Ala-h-Amylin (peptide)
2,50 pM,purified human amylin (from UniProt P10997 34-70) (peptide)
